In patent US20170081400A1 (CEPHALON, published 2017):
Numbering of substitutions follows the chain as printed.

T1: human TL1A extracellular domain with N-terminal HIS and FLAG tag (human, UniProt O95150 72-251)
T1 construct: the whole entry is named
T1 sequence: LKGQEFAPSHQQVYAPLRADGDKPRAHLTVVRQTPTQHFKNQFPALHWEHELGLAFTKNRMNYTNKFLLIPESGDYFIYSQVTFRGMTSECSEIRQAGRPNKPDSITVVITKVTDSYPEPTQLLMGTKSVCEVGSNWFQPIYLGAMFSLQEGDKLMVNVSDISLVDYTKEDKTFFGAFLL

T2: human TL1A extracellular domain with N-terminal HIS and FLAG tag (human) (UniProt O95150)
T2 sequence: T1 sequence

B1: 320-438 (antibody, human IgG1, name in Kabat numbering, V domains shown)
VH: QVQLVQSGAEVKKPGASVKVSCKASGYTFTSADINWVRQAPGQGLEWMGWLNPNSGNTGYAQKFQGRVTMTADRSTSTAYMELSSLRSEDTAVYYCAREVPETAAFEYWGQGTLVTVSS
VL: QSVLTQPPSVSGAPGQRVTISCTSSSSDIGAGLGVHWYQQLPGTAPKLLIEGYYNRPSGVPDRFSGSKSGTSASLTITGLLPEDEGDYYCQSYDGTLSALFGGGTKLTVLG
notes: human IgG1, lambda
B2: 320-455 (antibody, human IgG1, name in Kabat numbering, V domains shown)
VH: B1 VH with A32Y, I34S
VL: B1 VL
notes: human IgG1, lambda
B3: 320-446 (antibody, human IgG1, name in Kabat numbering, V domains shown)
VH: B1 VH with A32Y, D33A
VL: B1 VL
notes: human IgG1, lambda
B4: 320-442 (antibody, human IgG1, name in Kabat numbering, V domains shown)
VH: B1 VH with A32H
VL: B1 VL
notes: human IgG1, lambda
B5: 320-434 (antibody, human IgG1, name in Kabat numbering, V domains shown)
VH: B1 VH with S31K, A32Y
VL: B1 VL
notes: human IgG1, lambda
B6: 320-462 (antibody, human IgG1, name in Kabat numbering, V domains shown)
VH: B1 VH with A32Y, I34Y
VL: B1 VL
notes: human IgG1, lambda
B7: 320-432 (antibody, human IgG1, name in Kabat numbering, V domains shown)
VH: B1 VH with S31Q, A32Y
VL: B1 VL
notes: human IgG1, lambda
B8: 320-447 (antibody, human IgG1, name in Kabat numbering, V domains shown)
VH: B1 VH with A32Y, D33S
VL: B1 VL
notes: human IgG1, lambda
B9: 320-449 (antibody, human IgG1, name in Kabat numbering, V domains shown)
VH: B1 VH with A32Y, D33H
VL: B1 VL
notes: human IgG1, lambda
B10: 320-452 (antibody, human IgG1, name in Kabat numbering, V domains shown)
VH: B1 VH with A32Y, D33W
VL: B1 VL
notes: human IgG1, lambda
B11: 320-459 (antibody, human IgG1, name in Kabat numbering, V domains shown)
VH: B1 VH with A32Y, I34K
VL: B1 VL
notes: human IgG1, lambda
B12: 320-444 (antibody, human IgG1, name in Kabat numbering, V domains shown)
VH: B1 VH with A32L
VL: B1 VL
notes: human IgG1, lambda
B13: 320-441 (antibody, human IgG1, name in Kabat numbering, V domains shown)
VH: B1 VH with A32D
VL: B1 VL
notes: human IgG1, lambda
B14: 320-437 (antibody, human IgG1, name in Kabat numbering, V domains shown)
VH: B1 VH with S31Y, A32Y
VL: B1 VL
notes: human IgG1, lambda
B15: 320-453 (antibody, human IgG1, name in Kabat numbering, V domains shown)
VH: B1 VH with A32Y, D33Y
VL: B1 VL
notes: human IgG1, lambda
B16: 320-439 (antibody, human IgG1, name in Kabat numbering, V domains shown)
VH: B1 VH with A32S
VL: B1 VL
notes: human IgG1, lambda
B17: 320-440 (antibody, human IgG1, name in Kabat numbering, V domains shown)
VH: B1 VH with A32Q
VL: B1 VL
notes: human IgG1, lambda
B18: 320-454 (antibody, human IgG1, name in Kabat numbering, V domains shown)
VH: B1 VH with A32Y, I34A
VL: B1 VL
notes: human IgG1, lambda
B19: 320-436 (antibody, human IgG1, name in Kabat numbering, V domains shown)
VH: B1 VH with S31W, A32Y
VL: B1 VL
notes: human IgG1, lambda
B20: 320-456 (antibody, human IgG1, name in Kabat numbering, V domains shown)
VH: B1 VH with A32Y, I34Q
VL: B1 VL
notes: human IgG1, lambda
B21: 320-433 (antibody, human IgG1, name in Kabat numbering, V domains shown)
VH: B1 VH with S31D, A32Y
VL: B1 VL
notes: human IgG1, lambda
B22: 320-451 (antibody, human IgG1, name in Kabat numbering, V domains shown)
VH: B1 VH with A32Y, D33L
VL: B1 VL
notes: human IgG1, lambda
B23: 320-460 (antibody, human IgG1, name in Kabat numbering, V domains shown)
VH: B1 VH with A32Y, I34L
VL: B1 VL
notes: human IgG1, lambda
B24: 320-458 (antibody, human IgG1, name in Kabat numbering, V domains shown)
VH: B1 VH with A32Y, I34H
VL: B1 VL
notes: human IgG1, lambda
B25: 320-435 (antibody, human IgG1, name in Kabat numbering, V domains shown)
VH: B1 VH with S31L, A32Y
VL: B1 VL
notes: human IgG1, lambda
B26: 320-461 (antibody, human IgG1, name in Kabat numbering, V domains shown)
VH: B1 VH with A32Y, I34W
VL: B1 VL
notes: human IgG1, lambda
B27: 320-465 (antibody, human IgG1, name in Kabat numbering, V domains shown)
VH: B1 VH with A32Y, N35Q
VL: B1 VL
notes: human IgG1, lambda
B28: 320-318 (antibody, human IgG1, name in Kabat numbering, V domains shown)
VH: B1 VH with A32Y
VL: B1 VL with S92A
notes: human IgG1, lambda
B29: 320-328 (antibody, human IgG1, name in Kabat numbering, V domains shown)
VH: B1 VH with A32Y
VL: B1 VL with Y93H
notes: human IgG1, lambda
B30: 320-345 (antibody, human IgG1, name in Kabat numbering, V domains shown)
VH: B1 VH with A32Y
VL: B1 VL with G95K
notes: human IgG1, lambda
B31: 320-326 (antibody, human IgG1, name in Kabat numbering, V domains shown)
VH: B1 VH with A32Y
VL: B1 VL with Y93S
notes: human IgG1, lambda

What follows are binders tested against T1, human TL1A extracellular domain with … (assay: SPR Run 6, purified Ab captured on Protein A, TL1A 5 ug/mL, timepoint 44).
Source text: (§1) 1.5. Antibody expression and antigen binding as determined by SPR. Using a CM5 sensor chip (GE Healthcare) Protein A (Pierce) was coupled to the chip surface using an amine coupling kit (GE Healthcare). Protein A was coupled on flow cell 1 and 2 (or alternatively 3 and 4) using a BIACORE® T200. […] The amount of supernatant or purified protein (as well as the concentration) injected during the capture stage varied between runs and is specified in the header of the Tables 3-11. At the end of injection of the supernatant or purified antibody the change in response units was measured. This value was reported as Capture Level in Tables 3-11. […] The response units were measured prior to the end of the dissociation phase. […] The sensorgrams were double referenced (flow cell 2 is subtracted from flow cell 1 and a buffer blank). As there were a large number of antibody variants to screen, these were screened across different runs (Tables 3-11). […] A summary of the conditions used in each run is below:
(§2) 2.1. […] In some experiment the antibodies were purified using Protein A chromatography (See 1.4) and purified antibodies were used in BIACORE® (GE Healthcare) experiments.

Row | TL1A Binding Level (Early) [RU] | Binder
1 | 126 | B1
2 | 27 | B2
3 | 18 | B3
4 | 124 | B4
5 | 125 | B5
6 | 58 | B6
7 | 116 | B7
8 | 37 | B8
9 | 76 | B9
10 | 84 | B10
11 | 20 | B11
12 | 107 | B12
13 | 80 | B13
14 | 119 | B14
15 | 111 | B15
16 | 119 | B16
17 | 108 | B17
18 | 43 | B18
19 | 129 | B19
20 | 52 | B20
21 | 90 | B21
22 | 19 | B22
23 | 114 | B23
24 | 59 | B24
25 | 92 | B25
26 | 87 | B26
27 | 92 | B27

Each binder was assayed against T1, human TL1A extracellular domain with … (assay: SPR Run 4, purified Ab captured on Protein A, TL1A 5 ug/mL, timepoint 44).
Source text: as §1, §2

Row | TL1A Binding Level (Early) [RU] | Binder
28 | 160 | B28
29 | 155 | B29
30 | 163 | B30
31 | 126 | B31

These binders were tested against T2, human TL1A extracellular domain with N-terminal HIS and FLAG tag (human) (assay: cell-based or functional assay).

Row | Antibody IC50, TL1A induced caspase potency assay in TF-1 cells [µg/mL] | Fold improvement over 320-179, TL1A induced caspase potency assay in TF-1 cells [fold] | Binder
32 | 0.02 | 3 | B28
33 | 0.02 | 1 | B29
34 | 0.02 | 1 | B30
35 | 0.03 | 2 | B31

These binders were tested against T1, human TL1A extracellular domain with … (assay: SPR Run 6, purified Ab captured on Protein A, TL1A 5 ug/mL, timepoint 170).
Source text: as §1, §2

Row | TL1A Binding Level (Late) [RU] | Binder
36 | 116 | B1
37 | 23 | B2
38 | 8 | B3
39 | 113 | B4
40 | 113 | B5
41 | 52 | B6
42 | 106 | B7
43 | 13 | B8
44 | 59 | B9
45 | 78 | B10
46 | 17 | B11
47 | 95 | B12
48 | 67 | B13
49 | 109 | B14
50 | 104 | B15
51 | 108 | B16
52 | 97 | B17
53 | 37 | B18
54 | 118 | B19
55 | 46 | B20
56 | 83 | B21
57 | 8 | B22
58 | 105 | B23
59 | 53 | B24
60 | 83 | B25
61 | 82 | B26
62 | 78 | B27

What follows are binders tested against T1, human TL1A extracellular domain with … (assay: SPR Run 4, purified Ab captured on Protein A, TL1A 5 ug/mL, timepoint 220).
Source text: as §1, §2

Row | TL1A Binding Level (Late) [RU] | Binder
63 | 149 | B28
64 | 146 | B29
65 | 154 | B30
66 | 120 | B31
